Assay results published in US20250197467A1 (BRIGHT PEAK THERAPEUTICS, published 2025).
Positions count from the first letter of the chain named. Values joined by “and” are separate entries in the source; they are usually repeats but may differ in a detail not shown here. Equal entries are not always repeated.

T1: IL-18 receptor (IL-18Rαβ) on cells (UniProt Q13478 19-541; O95256 20-599, limits assumed)
T1 sequence (looked up) 1: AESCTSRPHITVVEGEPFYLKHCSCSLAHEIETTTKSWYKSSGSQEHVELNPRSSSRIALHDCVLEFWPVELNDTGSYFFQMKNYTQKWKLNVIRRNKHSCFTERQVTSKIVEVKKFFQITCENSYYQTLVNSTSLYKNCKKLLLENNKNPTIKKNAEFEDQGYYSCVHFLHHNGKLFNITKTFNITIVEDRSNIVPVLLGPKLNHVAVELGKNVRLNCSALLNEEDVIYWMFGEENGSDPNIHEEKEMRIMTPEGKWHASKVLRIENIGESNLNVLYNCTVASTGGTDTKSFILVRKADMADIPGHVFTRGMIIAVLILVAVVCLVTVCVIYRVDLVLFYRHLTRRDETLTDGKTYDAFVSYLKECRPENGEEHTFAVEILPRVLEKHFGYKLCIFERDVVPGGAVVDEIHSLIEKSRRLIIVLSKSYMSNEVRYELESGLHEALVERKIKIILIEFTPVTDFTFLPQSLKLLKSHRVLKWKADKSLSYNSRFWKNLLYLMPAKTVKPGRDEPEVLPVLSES
T1 sequence (looked up) 2: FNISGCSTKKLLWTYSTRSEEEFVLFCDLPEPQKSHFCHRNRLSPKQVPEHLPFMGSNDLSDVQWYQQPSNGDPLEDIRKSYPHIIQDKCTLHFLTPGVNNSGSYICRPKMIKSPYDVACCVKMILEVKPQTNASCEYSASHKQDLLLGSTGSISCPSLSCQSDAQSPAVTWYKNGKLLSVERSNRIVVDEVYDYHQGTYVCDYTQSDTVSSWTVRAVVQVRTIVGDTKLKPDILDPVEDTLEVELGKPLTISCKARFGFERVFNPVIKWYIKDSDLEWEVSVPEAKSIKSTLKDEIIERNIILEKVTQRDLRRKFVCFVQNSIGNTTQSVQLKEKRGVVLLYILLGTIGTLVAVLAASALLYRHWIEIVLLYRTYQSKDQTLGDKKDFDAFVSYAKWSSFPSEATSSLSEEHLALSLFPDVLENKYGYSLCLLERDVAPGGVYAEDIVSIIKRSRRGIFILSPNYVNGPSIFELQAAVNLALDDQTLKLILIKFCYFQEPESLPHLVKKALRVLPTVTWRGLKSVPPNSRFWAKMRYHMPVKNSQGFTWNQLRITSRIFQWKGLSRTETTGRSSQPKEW

B1: SEQ ID NO 34 (ligand)
chain: YFGKLKSKLSVIRNLNDQVLFIDQGNRPLFEDMTDSDCRDNAPRTIFIISMYADAQPRGMAVTISVKCEKISTLSCENKIISFKEMNPPDNIKDTKSDIIFFQRSVPGHDNKMQFESSSYEGYFLACEKERDLFKLILKKEDELGDRSIMFTVQNED
B2: SEQ ID NO 42 (ligand)
chain: B1 chain with T63A
B3: SEQ ID NO 50 (ligand)
chain: B1 chain with A55S, T63A
B4: SEQ ID NO 54 (ligand)
chain: B1 chain with C38S, A55S, C68S, K70C, C76S, C127S
B5: SEQ ID NO 56 (ligand)
chain: B1 chain with C38S, A55S, C76S, C127S
B6: SEQ ID NO 57 (ligand)
chain: B1 chain with C38S, A55S
B7: SEQ ID NO 62 (ligand)
chain: B1 chain with C38A, A55S, C127A
B8: SEQ ID NO 60 (ligand)
chain: B1 chain with C38Q, A55S
B9: SEQ ID NO 59 (ligand)
chain: B1 chain with C38A, A55S
B10: C143 (ligand)
chain: B1 chain with K6E, V11I, C38A, A55S, C76A, C127A
B11: C144 (ligand)
chain: B1 chain with K6E, V11I, C38A, A55S, T63A, C76A, C127A
B12: C145 (ligand)
chain: B1 chain with K6E, V11I, C38A, C76A, C127A
B13: C146 (ligand)
chain: B1 chain with K6E, V11I, C38A, M51G, A55S, C76A, C127A
B14: C147 (ligand)
chain: B1 chain with K6E, V11I, C38A, D54A, A55S, C76A, C127A
B15: C174 (ligand)
chain: B1 chain with K8L, V11I, C38A, A55S, T63A, C76A, C127A
B16: C176 (ligand)
chain: B1 chain with V11I, C38A, I49M, A55S, T63A, C76A, C127A
B17: C177 (ligand)
chain: B1 chain with V11I, C38A, I49R, A55S, T63A, C76A, C127A
B18: C178 (ligand)
chain: B1 chain with V11I, C38A, A55S, T63A, C76A, Q103R, C127A
B19: C179 (ligand)
chain: B1 chain with K8E, V11I, C38A, A55S, T63A, C76A, Q103R, C127A
B20: C181 (ligand)
chain: B1 chain with V11I, C38A, A55S, T63A, C76A, C127A, V153E
B21: C182 (ligand)
chain: B1 chain with V11I, C38A, A55S, T63A, C76A, C127A, V153Y
B22: C183 (ligand)
chain: B1 chain with V11I, C38A, M51G, A55S, T63A, C76A, C127A
B23: C184 (ligand)
chain: B1 chain with K6R, V11I, C38A, A55S, T63A, C76A, C127A
B24: C140 (ligand)
chain: GGGGYFGKLKSKLSIIRNLNDQVLFIDQGNRPLFEDMTDSDARDNAPRTIFIISMYADSQPRGMAVAISVKCEKISTLSAENKIISFKEMNPPDNIKDTKSDIIFFQRSVPGHDNKMQFESSSYEGYFLAAEKERDLFKLILKKEDELGDRSIMFTVQNED
B25: C141 (ligand)
chain: GYFGKLKSKLSIIRNLNDQVLFIDQGNRPLFEDMTDSDARDNAPRTIFIISMYADSQPRGMAVAISVKCEKISTLSAENKIISFKEMNPPDNIKDTKSDIIFFQRSVPGHDNKMQFESSSYEGYFLAAEKERDLFKLILKKEDELGDRSIMFTVQNED
B26: C142 (ligand)
chain: B1 chain with Y1M, V11I, C38A, A55S, T63A, C76A, C127A
B27: C192 (ligand)
chain: B25 chain with M52G
B28: SEQ ID NO 35 (ligand)
chain: B1 chain with Y1G, F2A, M51G, D54A, T63A
B29: SEQ ID NO 43 (ligand)
chain: B1 chain with Y1G
B30: SEQ ID NO 44 (ligand)
chain: B1 chain with F2A
B31: SEQ ID NO 45 (ligand)
chain: B1 chain with D54A
B32: SEQ ID NO 46 (ligand)
chain: B1 chain with M51G
B33: SEQ ID NO 47 (ligand)
chain: B1 chain with K6E, C38S, A53K, A55S, C68S, C76S, C127S
B34: SEQ ID NO 48 (ligand)
chain: B1 chain with K6E, C38S, A53K, A55S, C68S, K70C, C76S, C127S
B35: SEQ ID NO 49 (ligand)
chain: B1 chain with C38S, C68S, K70C, C76S, C127S
B36: SEQ ID NO 55 (ligand)
chain: B1 chain with K6E, C38S, A55S, T63A, C68S, K70C, C76S, C127S
B37: SEQ ID NO 6 (ligand)
chain: B1 chain with V11I, C38A, A55S, T63A, C68A, C76A, D98C, C127A
B38: SEQ ID NO 5 (ligand)
chain: B1 chain with V11I, C38A, A55S, T63A, C68A, C76A, M86C, C127A
B39: SEQ ID NO 9 (ligand)
chain: B1 chain with C38A, A55S, C68A, D98C
B40: SEQ ID NO 4 (ligand)
chain: B1 chain with C38A, A55S, C68A, M86C

The binders below were run against T1, IL-18 receptor (IL-18Rαβ) on cells (assay: cell-based or functional assay).
In the case of B1, the “HEK-Blue IL-18R reporter EC50” value is reported as 272 pM. B2 was tested, and the “HEK-Blue IL-18R reporter EC50” value was 0.79 pM. With B3 the “HEK-Blue IL-18R reporter EC50” value was 1.77 pM. B4 was tested, and the “HEK-Blue IL-18R reporter EC50” value was 9.12 pM. B5 was tested, and the “HEK-Blue IL-18R reporter EC50” value was 3.73 pM. For B6, the “HEK-Blue IL-18R reporter EC50” value was 0.86 pM and 0.53 pM. For B7, the “HEK-Blue IL-18R reporter EC50” value was 0.17 pM. B8 was tested, and the “HEK-Blue IL-18R reporter EC50” value was 0.203 pM. In the case of B9, the “HEK-Blue IL-18R reporter EC50” value is reported as 0.268 pM. For B10, the “HEK-Blue IL-18R reporter EC50” value was 0.98 pM. B11 was tested, and the “HEK-Blue IL-18R reporter EC50” value was 0.17 pM. In the case of B12, the “HEK-Blue IL-18R reporter EC50” value is reported as 3.63 pM. For B13, the “HEK-Blue IL-18R reporter EC50” value was 0.8 pM. In the case of B14, the “HEK-Blue IL-18R reporter EC50” value is reported as 1 pM. B15 was tested, and the “HEK-Blue IL-18R reporter EC50” value was 0.29 pM. With B16 the “HEK-Blue IL-18R reporter EC50” value was 0.07 pM. For B17, the “HEK-Blue IL-18R reporter EC50” value was 0.04 pM. In the case of B18, the “HEK-Blue IL-18R reporter EC50” value is reported as 0.26 pM. B19 was tested, and the “HEK-Blue IL-18R reporter EC50” value was 0.4 pM. B20 was tested, and the “HEK-Blue IL-18R reporter EC50” value was 0.1 pM. With B21 the “HEK-Blue IL-18R reporter EC50” value was 0.08 pM. In the case of B22, the “HEK-Blue IL-18R reporter EC50” value is reported as 0.1 pM. B23 was tested, and the “HEK-Blue IL-18R reporter EC50” value was 0.04 pM. For B24, the “HEK-Blue IL-18R reporter EC50” value was 2.5 pM. For B25, the “HEK-Blue IL-18R reporter EC50” value was 1.68 pM. With B26 the “HEK-Blue IL-18R reporter EC50” value was 0.02 pM. In the case of B27, the “HEK-Blue IL-18R reporter EC50” value is reported as 14 pM.

Target: T1, IL-18 receptor (IL-18Rαβ) on cells
Assay: cell-based or functional assay
Remark: another data set of the same source
In the case of B1, the “EC50 (IFNγ stimulation, NK92)” value is reported as 0.824 nM. In the case of B2, the “EC50 (IFNγ stimulation, NK92)” value is reported as 0.144 nM. For B3, the “EC50 (IFNγ stimulation, NK92)” value was 0.0268 nM. B4 was tested, and the “EC50 (IFNγ stimulation, NK92)” value was 0.962 nM. With B6 the “EC50 (IFNγ stimulation, NK92)” value was 0.045 nM. For B7, the “EC50 (IFNγ stimulation, NK92)” value was 0.026 nM. In the case of B8, the “EC50 (IFNγ stimulation, NK92)” value is reported as 0.006 nM. B9 was tested, and the “EC50 (IFNγ stimulation, NK92)” value was 0.015 nM. In the case of B10, the “EC50 (IFNγ stimulation, NK92)” value is reported as 0.138 nM. In the case of B11, the “EC50 (IFNγ stimulation, NK92)” value is reported as 0.012 nM. In the case of B12, the “EC50 (IFNγ stimulation, NK92)” value is reported as 0.087 nM. B13 was tested, and the “EC50 (IFNγ stimulation, NK92)” value was 0.037 nM. For B14, the “EC50 (IFNγ stimulation, NK92)” value was 0.079 nM. For B28, the “EC50 (IFNγ stimulation, NK92)” value was > 55 nM. For B29, the “EC50 (IFNγ stimulation, NK92)” value was 6.12 nM. With B30 the “EC50 (IFNγ stimulation, NK92)” value was > 1000 nM. For B31, the “EC50 (IFNγ stimulation, NK92)” value was 30 nM. With B32 the “EC50 (IFNγ stimulation, NK92)” value was 7.4 nM. B33 was tested, and the “EC50 (IFNγ stimulation, NK92)” value was 0.115 nM. With B34 the “EC50 (IFNγ stimulation, NK92)” value was 0.488 nM. With B35 the “EC50 (IFNγ stimulation, NK92)” value was 58.5 nM. For B36, the “EC50 (IFNγ stimulation, NK92)” value was 17.2 nM. In the case of B37, the “EC50 (IFNγ stimulation, NK92)” value is reported as 1.37 nM. In the case of B38, the “EC50 (IFNγ stimulation, NK92)” value is reported as 0.075 nM. In the case of B39, the “EC50 (IFNγ stimulation, NK92)” value is reported as 0.069 nM. With B40 the “EC50 (IFNγ stimulation, NK92)” value was 0.022 nM.
